Test results from US20140363844.

Key:
[1] = target: T1, Presegetalin D1[14,31]P20Q
T1 chain: GLSFAFQAKDAENASSPV

[2] = target: T2, Presegetalin A1[14,32]N27A
T2 chain: GVPVWAFQAKDVEAASAPV

[3] = target: T3, Presegetalin A1[14,32]A28V
T3 chain: GVPVWAFQAKDVENVSAPV

[4] = target: T4, Presegetalin A1[14,32]A22V
T4 chain: GVPVWAFQVKDVENASAPV

[5] = target: T5, Presegetalin A1[14,32]S29A
T5 chain: GVPVWAFQAKDVENAAAPV

[6] = target: T6, Presegetalin A1[14,32]F20A
T6 chain: GVPVWAAQAKDVENASAPV

[7] = target: T7, Presegetalin A1[14,32]V17A
T7 chain: GVPAWAFQAKDVENASAPV

[8] = target: T8, Presegetalin A1[14,32]V17v
T8 chain: GVPVWAFQAKDVENASAPV

[9] = target: T9, Presegetalin A1[14,32] ins 16A17
T9 chain: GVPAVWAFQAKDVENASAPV

[10] = target: T10, Presegetalin A1[14,32]W18A
T10 chain: GVPVAAFQAKDVENASAPV

[11] = target: T11, Presegetalin A1[14,32] ins 16AAA17
T11 chain: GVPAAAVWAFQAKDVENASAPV

[12] = target: T12, Presegetalin A1[14,32]P31A
T12 chain: GVPVWAFQAKDVENASAAV

Presegetalin G1[14,31] = target: T13, Presegetalin G1[14,31]
T13 chain: GVKYAFQPKDSENASAPV

[13] = target: T14, Presegetalin A1[14,32]G14A
T14 chain: AVPVWAFQAKDVENASAPV

[14] = target: T15, Presegetalin A1[14,32]V15v
T15 chain: GVPVWAFQAKDVENASAPV

Presegetalin A1[14,19] = target: T16, Presegetalin A1[14,19]
T16 chain: GVPVWA

[15] = target: T17, Presegetalin A1[14,32]A19V
T17 chain: GVPVWVFQAKDVENASAPV

[16] = target: T18, Presegetalin A1[14,32]E26A
T18 chain: GVPVWAFQAKDVANASAPV

B1: Saponaria vaccaria PCY1 (recombinant, N-terminal His6-tag, expressed in E. coli from pCB008) (protein)
chain: MATSGFSKPLHYPPVRRDETVVDDYFGVKVADPYRWLEDPNSEETKEFVDNQEKLANSVLEECELIDKFKQKIIDFVNFPRCGVPFRRANKYFHFYNSGLQAQNVFQMQDDLDGKPEVLYDPNLREGGRSGLSLYSVSEDAKYFAFGIHSGLTEWVTIKILKTEDRSYLPDTLEWVKFSPAIWTHDNKGFFYCPYPPLKEGEDHMTRSAVNQEARYHFLGTDQSEDILLWRDLENPAHHLKCQITDDGKYFLLYILDGCDDANKVYCLDLTKLPNGLESFRGREDSAPFMKLIDSFDASYTAIANDGSVFTFQTNKDAPRKKLVRVDLNNPSVWTDLVPESKKDLLESAHAVNENQLILRYLSDVKHVLEIRDLESGALQHRLPIDIGSVDGITARRRDSVVFFKFTSILTPGIVYQCDLKNDPTQLKIFRESVVPDFDRSEFEVKQVFVPSKDGTKIPIFIAARKGISLDGSHPCEMHGYGGFGINMMPTFSASRIVFLKHLGGVFCLANIRGGGEYGEEWHKAGFRDKKQNVFDDFISAAEYLISSGYTKARRVAIEGGSNGGLLVAACINQRPDLFGCAEANCGVMDMLRFHKFTLGYLWTGDYGCSDKEEEFKWLIKYSPIHNVRRPWEQPGNEETQYPATMILTADHDDRVVPLHSFKLLATMQHVLCTSLEDSPQKNPIIARIQRKAAHYGRATMTQIAEVADRYGFMAKALEAPWID
CP (cyclic peptide product detected by LC/MS) [1]: + | LP (linear peptide product detected by LC/MS) [1]: - | cyclic peptide product (LC/MS) [1]: resulted in a 5 amino acid cyclic peptide product (cyclo(GLSFA); SEQ ID NO: 77), and the substituted glutamine was not part of the final cyclic peptide | CP (cyclic peptide product detected by LC/MS) [2]: + | LP (linear peptide product detected by LC/MS) [2]: + | linear segetalin A production relative to WT substrate [2]: showed a relative increase in production of linear segetalin A | segetalin A production relative to WT substrate [2]: positions were found to be sensitive to substitution ... position 20, 21, 23, 24, 27, 28 and 31 | CP (cyclic peptide product detected by LC/MS) [3]: + | LP (linear peptide product detected by LC/MS) [3]: + | linear segetalin A production relative to WT substrate [3]: showed a relative increase in production of linear segetalin A | segetalin A production relative to WT substrate [3]: positions were found to be sensitive to substitution ... position 20, 21, 23, 24, 27, 28 and 31 | CP (cyclic peptide product detected by LC/MS) [4]: + | LP (linear peptide product detected by LC/MS) [4]: + | linear segetalin A production relative to WT substrate [4]: showed a relative increase in production of linear segetalin A | CP (cyclic peptide product detected by LC/MS) [5]: + | LP (linear peptide product detected by LC/MS) [5]: + | linear segetalin A production relative to WT substrate [5]: showed a relative increase in production of linear segetalin A | segetalin A production relative to WT substrate [5]: yielded a 30% increase in segetalin A production relative to wild type presegetalin A1[14,32] | CP (cyclic peptide product detected by LC/MS) [6]: + | LP (linear peptide product detected by LC/MS) [6]: + | linear segetalin A production relative to WT substrate [6]: a relative increase in production of linear segetalin A from all mutant substrates except with No. 13 and No. 14 | segetalin A production relative to WT substrate [6]: segetalin A production was found to be ≧42 times lower than the WT substrate | CP (cyclic peptide product detected by LC/MS) [7]: + | LP (linear peptide product detected by LC/MS) [7]: + | CP (cyclic peptide product detected by LC/MS) [8]: + | LP (linear peptide product detected by LC/MS) [8]: - | CP (cyclic peptide product detected by LC/MS) [9]: + | LP (linear peptide product detected by LC/MS) [9]: + | CP (cyclic peptide product detected by LC/MS) [10]: + | LP (linear peptide product detected by LC/MS) [10]: - | CP (cyclic peptide product detected by LC/MS) [11]: + | LP (linear peptide product detected by LC/MS) [11]: + | CP (cyclic peptide product detected by LC/MS) [12]: + | LP (linear peptide product detected by LC/MS) [12]: + | linear segetalin A production relative to WT substrate [12]: showed a relative increase in production of linear segetalin A | segetalin A production relative to WT substrate [12]: the P31A mutant (No. 24 in Table 3) was found to yield […]11 times less segetalin A than that produced from the WT substrate | CP (cyclic peptide product detected by LC/MS) (Presegetalin G1[14,31]): + | LP (linear peptide product detected by LC/MS) (Presegetalin G1[14,31]): - | CP (cyclic peptide product detected by LC/MS) [13]: + | LP (linear peptide product detected by LC/MS) [13]: + | linear peptide product in LC/MS [13]: the highest amount of linear peptide product was detected with No. 7 | relative intensity of cyclic peptide product in LC/MS [13]: makes less product (cyclic peptide) with the substitution of glycine to alanine at the first position in segetalin A (No. 7) than with No. 8 to 11 | CP (cyclic peptide product detected by LC/MS) [14]: + | LP (linear peptide product detected by LC/MS) [14]: + | CP (cyclic peptide product detected by LC/MS) (Presegetalin A1[14,19]): - | CP (cyclic peptide product detected by LC/MS) [15]: - | LP (linear peptide product detected by LC/MS) [15]: - | CP (cyclic peptide product detected by LC/MS) [16]: +
